Drawing on article PMC3405053, this text covers fold of FOXO1/FOXO1 3A protein associated with MKP-3 compared to GFP control for one substance.

The target of this assay is MKP-3, endogenous in mouse liver (mouse (endogenous in C57BL/6 liver)) (UniProt Q9DBB1). The experiment in a line: co-IP; liver lysates of C57BL/6 mice injected with adenoviruses (GFP or FOXO1 3A, plus shGFP or shMKP-3); MKP-3 immunoprecipitated with MKP-3 antibody-bound Exactra D matrix; western blot for FOXO1, quantified. Background: Immunoblotting shows a protein as a band on a membrane.
Chain of UniProt Q9DBB1 (Q9DBB1 whole entry): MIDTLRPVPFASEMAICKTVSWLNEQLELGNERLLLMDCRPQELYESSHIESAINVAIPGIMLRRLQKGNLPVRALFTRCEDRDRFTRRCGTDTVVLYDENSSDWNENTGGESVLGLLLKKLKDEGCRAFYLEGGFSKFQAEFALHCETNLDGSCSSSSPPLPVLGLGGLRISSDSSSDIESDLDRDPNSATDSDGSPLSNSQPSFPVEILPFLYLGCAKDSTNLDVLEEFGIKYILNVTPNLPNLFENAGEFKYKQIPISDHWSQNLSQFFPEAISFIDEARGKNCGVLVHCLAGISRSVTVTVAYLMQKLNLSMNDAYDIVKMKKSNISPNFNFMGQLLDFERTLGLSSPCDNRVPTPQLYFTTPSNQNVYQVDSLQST

“FOXO1 3A (Akt phosphorylation resistant FOXO1 mutant), over-expressed in mouse liver (from UniProt Q9R1E0 1-652) (natural protein)”: the fold of FOXO1/FOXO1 3A protein associated with MKP-3 compared to GFP control came out at 7.9 fold.
